Results as given in publication PMC4581524 (Journal of cellular biochemistry, 2015).

T1: monomeric RANK (UniProt O35305 31-214)
T1 sequence (looked up): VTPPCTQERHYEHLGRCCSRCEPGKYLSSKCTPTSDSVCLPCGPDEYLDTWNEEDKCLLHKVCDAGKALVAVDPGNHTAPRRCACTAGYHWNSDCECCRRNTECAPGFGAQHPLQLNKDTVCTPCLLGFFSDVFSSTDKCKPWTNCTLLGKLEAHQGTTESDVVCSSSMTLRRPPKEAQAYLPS

B1: RANKL K194E (ligand)
chain: KPEAQPFAHLTINAASIPSGSHKVTLSSWYHDRGWAEISNMTLSNGKLRVNQDGFYYLYANISFRHHETSGSVPTDYLQLMVYVVKTSEKIPSSHNLMKGGSTKNWSGNSEFHFYSINVGGFFKLRAGEEISIQVSNPSLLDPDQDATYFGAFKVQDID
modifications: Homotrimer; limits by convention (mouse RANKL ectodomain core). Species inferred: the printed numbering fits mouse
B2: RANKL K194E/Q236H (ligand)
chain: KPEAQPFAHLTINAASIPSGSHKVTLSSWYHDRGWAEISNMTLSNGKLRVNQDGFYYLYANISFRHHETSGSVPTDYLHLMVYVVKTSEKIPSSHNLMKGGSTKNWSGNSEFHFYSINVGGFFKLRAGEEISIQVSNPSLLDPDQDATYFGAFKVQDID
modifications: Homotrimer; limits by convention (mouse RANKL ectodomain core)
B3: RANKL K194E/Q236H/F269Y (ligand)
chain: KPEAQPFAHLTINAASIPSGSHKVTLSSWYHDRGWAEISNMTLSNGKLRVNQDGFYYLYANISFRHHETSGSVPTDYLHLMVYVVKTSEKIPSSHNLMKGGSTKNWSGNSEYHFYSINVGGFFKLRAGEEISIQVSNPSLLDPDQDATYFGAFKVQDID
modifications: Homotrimer; limits by convention (mouse RANKL ectodomain core)
B4: RANKL Q236H (ligand)
chain: KPEAQPFAHLTINAASIPSGSHKVTLSSWYHDRGWAKISNMTLSNGKLRVNQDGFYYLYANISFRHHETSGSVPTDYLHLMVYVVKTSEKIPSSHNLMKGGSTKNWSGNSEFHFYSINVGGFFKLRAGEEISIQVSNPSLLDPDQDATYFGAFKVQDID
modifications: Homotrimer; limits by convention (mouse RANKL ectodomain core)

These binders were tested against T1, monomeric RANK (assay: SPR).

In order of falling Kd:
1. B1  899 nM
2. B4  81 nM
3. B2  67 nM
4. B3  29 nM

In order of falling koff:
1. B1  0.101 s⁻¹
2. B4  0.023 s⁻¹
3. B2  0.017 s⁻¹
4. B3  0.005 s⁻¹

In order of rising kon:
1. B1  113000 M⁻¹ s⁻¹
2. B3  167000 M⁻¹ s⁻¹
3. B2  174000 M⁻¹ s⁻¹
4. B4  300000 M⁻¹ s⁻¹
